Source: patent US20090203538A1 (INSTITUTE FOR ANTIBODIES, published 2009)
Where a chain is given by its changes, count along the chain named.

B1: 083-131 antibody (antibody, V domains shown)
VH: EVQLVESGGGVVQPGRSLRLSCAASGFTFDDYAMHWVRQAPGKGLEWVSGISWNSGSIGYADSVKGRFTISRDNAKNSLYLQMNSLRAEDTAVYYCATEEWWRFDLWGRGTLVTVSR
VL: QSALTQPPSASGSPGQSVTISCTGTSSDVDDYNYVSWYQQHPGKAPKLMIYEVTKRPSGVPDRFSGSKSGNTASLTISGLQAEDEADYYCSSYVGSDNRVFGTGTKVTVPG
notes: Clone of the scFv-CL-cp3 phage library
B2: 029-143 antibody (antibody, V domains shown)
VH: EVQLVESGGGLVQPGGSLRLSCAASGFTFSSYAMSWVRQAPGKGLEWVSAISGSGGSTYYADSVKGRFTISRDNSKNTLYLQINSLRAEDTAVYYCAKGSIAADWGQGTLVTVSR
VL: SSELTQDPAVSVALGQTVRITCQGDSLRSYYASWYQQKPGQAPVLVIYGKNNRPSGIPDRFSGSSSGNTASLTITGAQAEDEADYYCNSRDSSGNVVFGGGTKLTVLG
notes: as for B1
B3: 062-109 antibody (antibody, V domains shown)
VH: QVQLVQSGAEVKKPGASVKVSCKASGYTFTSYGISWVRQAPGQGLEWMGWISAYNGNTNYAQKLQGRVTMTTDTSTSTAYMELRSLRSDDTAVYYCARVGYYYYYGMDVWGQGTTVTVSR
VL: QSALTQPASVSGSPGQSITISCTGTSSDVGSYNLVSWYQQHPGKAPKLMIYEGSKRPSGVSNRFSGSKSGNTASLTISGLQAEDEADYYCSSYTSSSTWVFGGGTKLTVLG
B4: 084-103 antibody (antibody, V domains shown)
VH: QVQLVQSGAEVKKPGSSVKVSCKASGGTFSSYAISWVRQAPGQGLEWMGWMNPNSGNTGYAQKFQGRVTMTRNTSISTAYMELSSLRSEDTAVYYCARDVGIGVFDYWGQGTLVTVSR
VL: SYVLTQPPSVSVAPGKTARITCGGNNIGSKSVHWYQQKPGQAPVLVIYYDSDRPSGIPERFSGSNSGNTATLTISRVEAGDEADYYCQVWDSSSDHVVFGGGTKLTVLG
notes: as for B1
B5: 029-067 antibody (antibody, V domains shown)
VH: QVQLQQSGAEVKKPGASVKVSCKASGYTFTTYYMHWVRQAPGQGLEWMGIINPSGENTNYAQKFQGRVTMTRDTSTTTVYMELSSLRSEDTAVYYCARSFIGTRGGGLDVWGQGTTVTVSR
VL: QSVLTQPPSVSGAPGQRVNISCAGSSSNIGAGYDVHWYQQIPGTAPKLLMYGNSNRPSGVPDRFSGSKSGASASLAITRLQAEDEADYYCQSYDSSLSGSRVFGTGTKVTVLG
notes: as for B1
B6: 062-101 antibody (antibody, V domains shown)
VH: QVQLVQSGAEVKKPGASVKVSCKASGYTFTSYYMHWVRQAPGQGLEWMGIINPSGGSTSYAQKFQGRVTMTRDTSTSTVYMELSSLRSEDTAVYYCARELSAATAFDIWGQGTMVTVSR
VL: ETTLTQSPFSVSASVGDRVTITCRASQYISRWLAWYQQRPGKAPKLLIYAAASLQSGVPSRFSGSGSGTDFTLTISSLQPEDFATYYCQQANSFPVTFGQGTRLEIK
notes: as for B1
B7: 045-134 antibody (antibody, V domains shown)
VH: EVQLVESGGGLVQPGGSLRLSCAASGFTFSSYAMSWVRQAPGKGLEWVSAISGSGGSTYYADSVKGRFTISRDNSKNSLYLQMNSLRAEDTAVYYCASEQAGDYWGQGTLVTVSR
VL: QSVLTQPPSASGTPGQRVTISCSGSSSNIGSNYVYWYQQLPGTAPKLLIYRNNQRPSGVPDRFAGSKSGTSATLGITGLQTGDEADYYCGTWDSSLSAGVFGGGTKLTVLG
notes: as for B1
B8: 065-030 antibody (antibody, V domains shown)
VH: QVQLQQWGAGLLKPSETLSLTCAAYGGSFSGYYWSWIRQPPGKGLEWIGEINHSGSTNYNPSLKSRVTISVDTSKNQFSLKLSSVTAADTAVYYCARTYYGSGSYQYNWFDPWGQGTLVTVSR
VL: QSVLTQPPSVSGAPGQRVTISCTGSSSNIGAGYDVHWYQQLPGTAPKLLIYGNSNRPSGVPDRFSGSKSGTSASLAITGLQAEDEADYYCQSYDSSLSGVVFGGGTKLTVLG
notes: as for B1
B9: 064-044 antibody (antibody, V domains shown)
VH: QVQLVQSGAEVKKPGASVKVSCKVSGYTLTELSMHWVRQAPGKGLEWMGGFDPEDGETIYAQKFQGRVTMTEDTSTDTAYMELSSLRSEDTAVYYCATDLDYYGSGSYAFDIWGQGTTVTVSR
VL: B3 VL
notes: as for B1
B10: 066-019 antibody (antibody, V domains shown)
VH: QVQLQESGPGLVKPSQTLSLTCTVSGGSISSGDYYWSWIRQPPGKGLEWIGYIYYSGSTYYNPSLKSRVTISVDTSKNQFSLKLSSVTAADTAVYYCARGTGDLEWFDPWGQGTLVTVSR
VL: QSVLTQPPSVSGAPRQTVTISCSGSSSNIGQNSVTWYQRLPGEAPKLLIYYDDLLHSGVSDRFSGSKSGTSASLAISGLQSEDEAEYYCASWDDSLKGPVFGGGTKLTVLG
notes: as for B1
B11: 065-358 antibody (antibody, V domains shown)
VH: EVQLVESGGGLVQPGGSLRLSCAASGFTFSSYSMNWVRQAPGKGLEWVSYISSSSSTIYYADSVKGRFTISRDNAKNSLYLQMNSLRDEDTAVYYCARDNLEGLDYWGQGTLVTVSR
VL: B4 VL
notes: as for B1
B12: 079-085 antibody (antibody, V domains shown)
VH: EVQLVESGGGLVQPGGSLRLSCAASGFTFSSYSMNWVRQAPGKGLEWVSYISSSSSTIYYADSVKGRFTISRDNAKNSLYLQMNSLRDEDTAVYYCAREGPRGSYYYFDYWGQGTLVTVSR
VL: NFMLTQPHSVSESPGKTVTISCTRSSGSIASNYVQWYQQRPGSAPTTVIYEDNQRPSGVPDRFSGSIDSSSNSASLTISGLKTEDEADYYCQSYDSSNWVFGGGTKLTVLG
notes: as for B1
B13: 067-126 antibody (antibody, V domains shown)
VH: QVQLQESGPGLVKPSGTLSLTCAVSGGSISSSNWWSWVRQPPGKGLEWIGEIYHSGSTNYNPSLKSRVTISVDKSKNQFSLKLSSVTAADTAVYYCARGGSYYFDYWGQGTLVTVSR
VL: QSALTQPASVSGSPGQSITISCTGTISDVGGYDFVSWYQHHPGKAPKLLIYDVNNRPSGVSHRFSGSKSGNTASLTISGLQAEDEATYYCSSYSNRHSLIVFGSGTQVVGLG
notes: as for B1
B14: 067-133 antibody (antibody, V domains shown)
VH: QVQLQQWGAGLLKPSETLSLTCAVYGGSFSGYYWSWIRQPPGKGLEWIGEINHSGSTNYNPSLKSRVTISVDTSKNQFSLKLSSVTAADTAVYYCARGGGVEALNYGMDVWGQGTTVTVSR
VL: B13 VL with S17T
notes: as for B1
B15: 075-024 antibody (antibody, V domains shown)
VH: QVQLVQSGAEVKKPGASVKVSCKASGYTFTSYGISWVRQAPGQGLEWMGWISAYNGNTNYAQKLQGRVTMTTDTSTSTAYMELRSLRSDDTAVYYCARGGAFDIWGQGTTVTVSR
VL: B8 VL with D34H, H36Y, T44K, G52V, E83D, V100R
notes: as for B1
B16: 086-035 antibody (antibody, V domains shown)
VH: QVQLVQSGAEVKKPGESLKISCEGSGYTFTSYWIGWVRQMPGKDLEWMGIIYPGDSDTRYSPSFQGQVTISVDKSISTAYLQWSSLKASDTAMYYCARHDVVDGYNTGMDVWGQGTTVTVSR
VL: QTVVTQEPSFTVSPGGTVTLTCGLSSGSVSTSYYPSWYQQTPGQAPRTLISSTNTRSSGVPDRFSGSILGNRAALTITGAQADDESDYYCVLYMGSGIWVFGGGTKLTVLG
notes: as for B1
B17: 086-182 antibody (antibody, V domains shown)
VH: QVQLVQSGAEVKKPGESLKISCKGSGYSFTSYWIGWVRQMPGKGLEWMGIIYPGDSDTRYSPSFQGQVTISADKSISTAYLQWSSLKASDTAMYYCARHGMTSGYVAHNDYWGQGTLVTVSR
VL: B16 VL with T11S, S51Y, R72K
notes: as for B1
B18: 086-036 antibody (antibody, V domains shown)
VH: QVQLVQSGAEVKKPGESLKISCKGSGYSFTSYWIGWVRQMPGKGLEWMGIIYPGDSDARYSPSFQGQVTISADKSISTAYLQWSSLKASDTAMYYCARLTGSSYYDSSGYSSYGMDVWGQGTTVTVSR
VL: B16 VL with T11S, Y38F, S51Y, R72K, W99S, K106Q
notes: as for B1
B19: 086-032 antibody (antibody, V domains shown)
VH: QVQLVQSGSEVKKPGASVKVSCKTSGYIFTDYYMHWVRQAPGKGLEWMGWINPNSGGTYYAQKFHGRVTMTSDTSISTAYMELSSLRSDDTAIYYCAREDYDILTGYYPASGHGDYWGQGTLVTVSR
VL: QAVVTQEPSLTVSPGGTVTLTCASSTGAVTSGFLANWFQQKPGQTPRSLIYKTSNKHPWTPARFSGSLLGGKAALTLSGVQPEDEADYYCLLLSGGAWVFGGGTKLSVLG
notes: as for B1
B20: 086-138 antibody (antibody, V domains shown)
VH: B19 VH with Y107F
VL: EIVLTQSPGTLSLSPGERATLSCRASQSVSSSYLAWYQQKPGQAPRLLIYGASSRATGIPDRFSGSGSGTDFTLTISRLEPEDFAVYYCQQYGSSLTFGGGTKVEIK
notes: as for B1

Biological target: T1, ALCAM (Activated leukocyte cell adhesion molecule) (Homo sapiens (Human), UniProt Q13740 28-583)
T1 construct: Native protein on cancer cell lines; also called CD166 antigen; CD166
T1 sequence: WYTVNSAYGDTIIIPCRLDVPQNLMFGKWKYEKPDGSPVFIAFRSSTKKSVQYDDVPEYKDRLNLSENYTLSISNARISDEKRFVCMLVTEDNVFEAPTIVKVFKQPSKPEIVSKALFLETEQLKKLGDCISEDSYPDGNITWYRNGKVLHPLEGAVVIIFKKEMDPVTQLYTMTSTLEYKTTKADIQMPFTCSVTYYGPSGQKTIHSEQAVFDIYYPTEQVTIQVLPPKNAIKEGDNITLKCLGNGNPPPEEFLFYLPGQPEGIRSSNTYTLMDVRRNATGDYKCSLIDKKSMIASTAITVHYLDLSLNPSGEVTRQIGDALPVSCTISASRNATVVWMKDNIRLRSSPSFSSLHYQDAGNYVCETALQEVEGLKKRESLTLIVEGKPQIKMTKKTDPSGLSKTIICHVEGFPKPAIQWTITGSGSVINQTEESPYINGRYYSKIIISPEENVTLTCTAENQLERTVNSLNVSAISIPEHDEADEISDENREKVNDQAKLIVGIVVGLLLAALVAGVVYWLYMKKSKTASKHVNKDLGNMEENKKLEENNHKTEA
Assay: antigen assigned by the filing's classifying and identification method; details for this clone not given

Row | Binder | binding result
1 | B1 | binds
2 | B2 | binds
3 | B3 | binds
4 | B4 | binds
5 | B5 | binds
6 | B6 | binds
7 | B7 | binds

Biological target: T2, LAR (Leukocyte common Antigen-Related) (Homo sapiens (Human), UniProt P10586 30-1907, limits assumed)
T2 construct: also called PTP-LAR; protein tyrosine phosphatase receptor type F (PTPRF)
Assay: as above

Row | Binder | binding result
8 | B8 | binds
9 | B9 | binds
10 | B10 | binds
11 | B11 | binds
12 | B12 | binds

Biological target: T3, HGFR (Hepatocyte growth factor receptor) (Homo sapiens (Human), UniProt P08581 25-1390)
T3 construct: also called Met
T3 sequence (P08581 25-1390 L1272V limits assumed): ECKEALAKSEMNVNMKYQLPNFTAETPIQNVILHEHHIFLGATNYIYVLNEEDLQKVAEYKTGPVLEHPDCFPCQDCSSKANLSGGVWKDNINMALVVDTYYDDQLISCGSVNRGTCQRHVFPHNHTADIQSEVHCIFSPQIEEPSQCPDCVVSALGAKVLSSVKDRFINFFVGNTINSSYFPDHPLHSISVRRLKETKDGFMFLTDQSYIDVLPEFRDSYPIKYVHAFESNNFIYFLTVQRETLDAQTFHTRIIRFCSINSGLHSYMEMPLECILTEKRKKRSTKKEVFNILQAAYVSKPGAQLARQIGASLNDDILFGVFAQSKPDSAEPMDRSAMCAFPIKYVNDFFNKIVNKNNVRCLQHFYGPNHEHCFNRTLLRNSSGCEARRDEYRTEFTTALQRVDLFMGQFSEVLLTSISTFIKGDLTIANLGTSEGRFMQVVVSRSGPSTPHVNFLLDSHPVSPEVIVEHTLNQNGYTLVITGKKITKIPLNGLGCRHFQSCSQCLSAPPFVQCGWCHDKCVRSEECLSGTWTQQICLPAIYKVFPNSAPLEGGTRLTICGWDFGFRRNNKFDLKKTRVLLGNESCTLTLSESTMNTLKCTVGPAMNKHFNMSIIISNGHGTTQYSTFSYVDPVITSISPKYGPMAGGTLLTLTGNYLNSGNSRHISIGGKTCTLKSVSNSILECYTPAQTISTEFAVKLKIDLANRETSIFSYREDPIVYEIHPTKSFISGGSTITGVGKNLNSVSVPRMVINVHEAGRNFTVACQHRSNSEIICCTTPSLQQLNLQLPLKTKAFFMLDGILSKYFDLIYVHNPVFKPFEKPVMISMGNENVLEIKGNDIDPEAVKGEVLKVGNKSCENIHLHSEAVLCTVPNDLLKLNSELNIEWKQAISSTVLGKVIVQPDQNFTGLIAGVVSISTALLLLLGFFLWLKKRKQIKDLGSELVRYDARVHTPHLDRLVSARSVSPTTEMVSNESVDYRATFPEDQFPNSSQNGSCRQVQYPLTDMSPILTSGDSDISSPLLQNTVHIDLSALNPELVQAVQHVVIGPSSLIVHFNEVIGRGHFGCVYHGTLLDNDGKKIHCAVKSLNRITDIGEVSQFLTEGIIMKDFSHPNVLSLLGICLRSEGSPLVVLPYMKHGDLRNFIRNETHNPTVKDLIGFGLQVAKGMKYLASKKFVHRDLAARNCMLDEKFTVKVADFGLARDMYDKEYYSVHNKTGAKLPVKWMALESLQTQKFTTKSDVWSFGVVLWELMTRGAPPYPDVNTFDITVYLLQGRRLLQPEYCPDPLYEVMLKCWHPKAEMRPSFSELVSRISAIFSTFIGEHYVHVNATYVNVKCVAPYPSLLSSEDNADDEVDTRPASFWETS
Assay: as above

Row | Binder | binding result
13 | B13 | binds
14 | B14 | binds

Biological target: T4, HER2 (Homo sapiens (Human), UniProt P04626 23-1255)
T4 construct: Native protein on cancer cell lines; also called erbB-2; ErbB2
Assay: as above

Row | Binder | binding result
15 | B15 | binds
16 | B16 | binds
17 | B17 | binds
18 | B18 | binds
19 | B19 | binds
20 | B20 | binds
